This passage reports Kd results from PMC8142884.

In the assay the target is S2H14 (variable region fused with the constant region of IgG1). In words: SPR. On the technique in general: Surface plasmon resonance follows binding to a sensor surface in real time, without labels.

pKd: −log10 of the molar value.

“SARS-CoV-2 receptor binding domain (RBD), His-tagged (from UniProt P0DTC2 319-541) (domain or fragment)” had a pKd of 8.39.

A word on the pKd: it is the negative decadic logarithm of the Kd, by convention in mol/L.
